Assay results taken from paper PMC8199036, “Improved Tumor-Targeting with Peptidomimetic Analogs of Minigastrin ^177Lu-PP-F11N” (Cancers, 2021).
Several values for one entry are separate records, joined by “and”; a condition that tells them apart may be missing. Equal values may be shown once. Read-outs that look alike come from different tables or passages of the source.

Tests used:
[1] = set-up: method as in PMID 30608664; conditions: 177Lu-labeled; mouse blood, 10 min p.i.; reported previously; cited from earlier work
[2] = set-up: method as in PMID 30608664; conditions: 177Lu-labeled; 24 h incubation, human blood plasma; reported previously; cited from earlier work
[3] = tested on: xenografts of A431-CCK2R cells; experiment: biodistribution in mice with CCK2R-positive xenografts; format: in vivo, female CD1-nu mice
Experimental: (§1) Procedures for biodistribution studies with ^177Lu-labeled conjugates (10 pmol, 100 µL, 0.1 µM in PBS, 0.5 MBq, 1 µg/kg) in female CD1-nu mice with xenografts of A431-CCK2R cells at 1, 4, and 24 h p.i., as well as blocking experiments at 4 h p.i. with a 6000-fold excess of minigastrin have been reported previously and were followed without modifications. Statistical analysis was performed via GraphPad Prism using two-sided analysis of variance. n = 4 animals per group.

[4] = as above; format: in vivo, female CD1-nu mice; conditions: female, CD1-nu, mouse, in vivo, total radioactivity; for tissue uptake at 1 h: 1 h p.i.; for tissue uptake at 24 h: 24 h p.i.
Experimental: as §1

[5] = 10 pmol, read-out: Heart uptake
[6] = 10 pmol, read-out: Intestines uptake
[7] = 10 pmol, read-out: Kidneys uptake
[8] = 10 pmol, read-out: Liver uptake
[9] = 10 pmol, read-out: Pancreas uptake
[10] = 10 pmol, read-out: Spleen uptake
[11] = 10 pmol, read-out: Stomach (CCK2R-positive) uptake
[12] = 10 pmol, read-out: Tumor (CCK2R-positive) uptake

CCCC[C@H](NC(=O)[C@H](Cc1c[nH]c2ccccc12)NC(=O)CNC(=O)[C@H](Cc1ccc(O)cc1)NC(=O)[C@H](C)NC(=O)[C@@H](CCC(=O)O)NC(=O)[C@@H](CCC(=O)O)NC(=O)[C@@H](CCC(=O)O)NC(=O)[C@@H](CCC(=O)O)NC(=O)[C@@H](CCC(=O)O)NC(=O)[C@@H](CCC(=O)O)NC(=O)CN1CCN(CC(=O)O)CCN(CC(=O)O)CCN(CC(=O)O)CC1)C(=O)N[C@@H](CC(=O)O)C(=O)N[C@@H](Cc1ccccc1)C(N)=O [PP-F11N, DOTA-(DGlu)6-Ala-Tyr-Gly-Trp-Nle-Asp-Phe-NH2]
Intact Compound In Vivo (%), 10 min [1]: 43% and 43.1 ± 2.7% | Intact Compound In Vitro (%), 24 h, Blood Plasma [2]: 98.1 ± 0.9% | Tumor (CCK2R-positive) uptake ([3]; 1 h p.i.): 6.92 ± 2.21 % i.A./g | Tumor (CCK2R-positive) uptake ([3]; 4 h p.i.): 4.07 ± 1.40 % i.A./g | Tumor (CCK2R-positive) uptake ([3]; 24 h p.i.): 2.73 ± 0.84 % i.A./g and 2.7 ± 0.8 % i.A./g | tissue uptake at 1 h ([4]; 10 pmol, read-out: Bone uptake): 0.88 %ID/g | tissue uptake at 1 h [4, 5]: 0.08 %ID/g | tissue uptake at 1 h [4, 6]: 0.12 %ID/g | tissue uptake at 1 h [4, 7]: 2.75 %ID/g | tissue uptake at 1 h [4, 8]: 0.09 %ID/g | tissue uptake at 1 h ([4]; 10 pmol, read-out: Lung uptake): 0.16 %ID/g | tissue uptake at 1 h ([4]; 10 pmol, read-out: Muscle uptake): 0.13 %ID/g | tissue uptake at 1 h [4, 9]: 0.18 %ID/g | tissue uptake at 1 h [4, 10]: 0.06 %ID/g | tissue uptake at 1 h [4, 11]: 1.02 %ID/g | tissue uptake at 1 h [4, 12]: 6.92 %ID/g | tissue uptake at 4 h ([4]; 10 pmol, 4 h (blocked), excess minigastrin, read-out: Bone uptake): 0.15 %ID/g | tissue uptake at 4 h ([4]; 10 pmol, 4 h (blocked), excess minigastrin, read-out: Muscle uptake): 0.01 %ID/g | tissue uptake at 4 h ([4]; 10 pmol, 4 h p.i., read-out: Blood uptake): 0.01 %ID/g | tissue uptake at 4 h ([4]; 10 pmol, 4 h p.i., read-out: Bone uptake): 0.22 %ID/g | tissue uptake at 4 h ([4]; 10 pmol, 4 h p.i., read-out: Heart uptake): 0.03 %ID/g | tissue uptake at 4 h ([4]; 10 pmol, 4 h p.i., read-out: Intestines uptake): 0.05 %ID/g | tissue uptake at 4 h ([4]; 10 pmol, 4 h p.i., read-out: Kidneys uptake): 2.42 %ID/g | tissue uptake at 4 h ([4]; 10 pmol, 4 h p.i., read-out: Liver uptake): 0.06 %ID/g | tissue uptake at 4 h ([4]; 10 pmol, 4 h p.i., read-out: Lung uptake): 0.03 %ID/g | tissue uptake at 4 h ([4]; 10 pmol, 4 h p.i., read-out: Muscle uptake): 0.02 %ID/g | tissue uptake at 4 h ([4]; 10 pmol, 4 h p.i., read-out: Pancreas uptake): 0.09 %ID/g | tissue uptake at 4 h ([4]; 10 pmol, 4 h p.i., read-out: Spleen uptake): 0.03 %ID/g | tissue uptake at 4 h ([4]; 10 pmol, 4 h p.i., read-out: Stomach (CCK2R-positive) uptake): 1.04 %ID/g | tissue uptake at 4 h ([4]; 10 pmol, 4 h p.i., read-out: Tumor (CCK2R-positive) uptake): 4.07 %ID/g | tissue uptake at 24 h ([4]; 10 pmol, read-out: Bone uptake): 0.1 %ID/g | tissue uptake at 24 h [4, 5]: 0.01 %ID/g | tissue uptake at 24 h [4, 6]: 0.03 %ID/g | tissue uptake at 24 h [4, 7]: 1.72 %ID/g | tissue uptake at 24 h [4, 8]: 0.04 %ID/g | tissue uptake at 24 h ([4]; 10 pmol, read-out: Lung uptake): 0.02 %ID/g | tissue uptake at 24 h [4, 9]: 0.08 %ID/g | tissue uptake at 24 h [4, 10]: 0.02 %ID/g | tissue uptake at 24 h [4, 11]: 0.67 %ID/g | tissue uptake at 24 h [4, 12]: 2.73 %ID/g | tissue uptake at 4 h ([4]; 4 h (blocked), excess minigastrin, read-out: Blood uptake): 0.01 %ID/g | tissue uptake at 4 h ([4]; 4 h (blocked), excess minigastrin, read-out: Heart uptake): 0.02 %ID/g | tissue uptake at 4 h ([4]; 4 h (blocked), excess minigastrin, read-out: Intestines uptake): 0.03 %ID/g | tissue uptake at 4 h ([4]; 4 h (blocked), excess minigastrin, read-out: Kidneys uptake): 2.57 %ID/g | tissue uptake at 4 h ([4]; 4 h (blocked), excess minigastrin, read-out: Liver uptake): 0.07 %ID/g | tissue uptake at 4 h ([4]; 4 h (blocked), excess minigastrin, read-out: Lung uptake): 0.04 %ID/g | tissue uptake at 4 h ([4]; 4 h (blocked), excess minigastrin, read-out: Pancreas uptake): 0.04 %ID/g | tissue uptake at 4 h ([4]; 4 h (blocked), excess minigastrin, read-out: Spleen uptake): 0.04 %ID/g | tissue uptake at 4 h ([4]; 4 h (blocked), excess minigastrin, read-out: Stomach (CCK2R-positive) uptake): 0.12 %ID/g | tissue uptake at 4 h ([4]; 4 h (blocked), excess minigastrin, read-out: Tumor (CCK2R-positive) uptake): 1.3 %ID/g
